Reference: patent publication US20220306750A1 (CITY OF HOPE, published 2022)
Read-outs that look alike come from different tables or passages of the source.

How the values were obtained:
[1] = target: T1, interleukin-1 receptor accessory protein (IL1RAP) on AML target cells (human, UniProt Q9NPH3 21-570); experiment: cell-based or functional assay
T1 sequence (looked up): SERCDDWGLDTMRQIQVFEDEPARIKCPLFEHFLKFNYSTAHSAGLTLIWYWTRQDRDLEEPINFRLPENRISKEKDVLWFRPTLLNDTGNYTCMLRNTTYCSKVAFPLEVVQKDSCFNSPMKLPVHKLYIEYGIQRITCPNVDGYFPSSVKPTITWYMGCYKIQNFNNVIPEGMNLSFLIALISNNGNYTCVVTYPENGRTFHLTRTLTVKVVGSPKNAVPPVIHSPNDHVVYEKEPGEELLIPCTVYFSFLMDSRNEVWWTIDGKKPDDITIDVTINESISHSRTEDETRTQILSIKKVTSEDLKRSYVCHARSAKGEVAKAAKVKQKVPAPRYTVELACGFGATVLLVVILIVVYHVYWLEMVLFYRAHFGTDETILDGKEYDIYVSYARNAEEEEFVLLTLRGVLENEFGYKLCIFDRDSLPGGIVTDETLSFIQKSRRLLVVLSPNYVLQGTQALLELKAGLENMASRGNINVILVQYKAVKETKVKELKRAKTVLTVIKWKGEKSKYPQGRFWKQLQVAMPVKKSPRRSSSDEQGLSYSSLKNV

[2] = target: T2, interleukin-1 receptor accessory protein (IL1RAP), antigen of the ELISA and phage selection (UniProt Q9NPH3 21-367, limits assumed); experiment: ELISA, scFv-Fc on IL1RAP
T2 sequence (looked up): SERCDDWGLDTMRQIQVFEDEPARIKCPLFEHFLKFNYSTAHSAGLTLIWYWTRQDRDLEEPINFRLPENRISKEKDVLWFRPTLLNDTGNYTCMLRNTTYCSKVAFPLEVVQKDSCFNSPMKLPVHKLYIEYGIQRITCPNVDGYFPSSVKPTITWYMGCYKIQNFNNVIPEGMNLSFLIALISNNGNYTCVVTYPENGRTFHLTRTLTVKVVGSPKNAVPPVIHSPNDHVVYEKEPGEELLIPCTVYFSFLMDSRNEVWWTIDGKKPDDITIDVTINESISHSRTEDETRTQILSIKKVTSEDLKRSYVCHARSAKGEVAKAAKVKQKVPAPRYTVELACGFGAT

[3] = target: T2, interleukin-1 receptor accessory …; experiment: ELISA, scFv-Fc on IL1RAP; remark: listed apart in the source

- cell lysis %-1 [1]: 27.2%
- cell lysis %-2 [1]: 28.7%
- cell lysis %-3 [1]: 23.7%
- cell lysis %-average [1]: 26.5%
- EC50 [2]: 85.4 µg/mL
- EC50 [3]: 854 nM
B1: anti-IL1RAP antibody clone 2E12 (Fc fusion)
VH: PGAAAGVGGGLVQPGGSLRLSCEASGFTFSRYWMHWVRQAPGKGLVWVSRIHTDGSSISYADSVKGRFTISRDNAKNTLYLQMNSLRAEDTAVYYCARDIGGGYSYGSVDYWGQGTLVTVSS
VL: QPVLTQSPSVSVAPGKTTRITCGGDNIGSKSVHWFQQKPGQAPVLVVFGGGDRPSGIPERFSGSNSGNTATLIISGVEGGDEADYYCQVWDGSTDHYIFGAGTMVTVL
notes: Tested as scFv-Fc
